Data set [1] deals with the molecule itself. The data set is described as follows: AUC; sedimentation velocity, 40000 rpm, 20°C, 10 mM Tris-HCl, absorbance at 280 nm, c(s) by Sedfit; protein at 1 mg/mL; dimer to monomers.
Data set [2] concerns the molecule itself. Kind of data set: AUC; sedimentation velocity, 40000 rpm, 20°C, 10 mM Tris-HCl, absorbance at 280 nm, c(s) by Sedfit; protein at 0.1 mg/mL with 10 mM guanidine hydrochloride; dimer to monomers.
Data set [3] deals with the molecule itself. The data set is described as follows: AUC; sedimentation velocity, 40000 rpm, 20°C, 10 mM Tris-HCl, absorbance at 280 nm, c(s) by Sedfit; protein at 0.1 mg/mL; dimer to monomers.

B1: human cytosolic aminopeptidase P, wild-type (enzyme, UniProt Q9NQW7 1-623, looked up)
chain: MPPKVTSELLRQLRQAMRNSEYVTEPIQAYIIPSGDAHQSEYIAPCDCRRAFVSGFDGSAGTAIITEEHAAMWTDGRYFLQAAKQMDSNWTLMKMGLKDTPTQEDWLVSVLPEGSRVGVDPLIIPTDYWKKMAKVLRSAGHHLIPVKENLVDKIWTDRPERPCKPLLTLGLDYTGISWKDKVADLRLKMAERNVMWFVVTALDEIAWLFNLRGSDVEHNPVFFSYAIIGLETIMLFIDGDRIDAPSVKEHLLLDLGLEAEYRIQVHPYKSILSELKALCADLSPREKVWVSDKASYAVSETIPKDHRCCMPYTPICIAKAVKNSAESEGMRRAHIKDAVALCELFNWLEKEVPKGGVTEISAADKAEEFRRQQADFVDLSFPTISSTGPNGAIIHYAPVPETNRTLSLDEVYLIDSGAQYKDGTTDVTRTMHFGTPTAYEKECFTYVLKGHIAVSAAVFPTGTKGHLLDSFARSALWDSGLDYLHGTGHGVGSFLNVHEGPCGISYKTFSDEPLEAGMIVTDEPGYYEDGAFGIRIENVVLVVPVKTKYNFNNRGSLTFEPLTLVPIQTKMIDVDSLTDKECDWLNNYHLTCRDVIGKELQKQGRQEALEWLIRETQPISKQH
notes: human cytosolic aminopeptidase P (hcAMPP), encoded by XPNPEP1, residues M1 to H623, cloned into pET-28a (NdeI/HindIII); The His-tag is thrombin cleavable; also called hcAMPP; wild-type hcAMPP; source: E. coli Rosetta (DE3), purified (Ni2+ chelating column)
For B1, in data set [1], the “stoichiometry N” value was 2.

B2: human cytosolic aminopeptidase P, R535A mutant (enzyme, UniProt Q9NQW7 1-623, looked up)
chain: MPPKVTSELLRQLRQAMRNSEYVTEPIQAYIIPSGDAHQSEYIAPCDCRRAFVSGFDGSAGTAIITEEHAAMWTDGRYFLQAAKQMDSNWTLMKMGLKDTPTQEDWLVSVLPEGSRVGVDPLIIPTDYWKKMAKVLRSAGHHLIPVKENLVDKIWTDRPERPCKPLLTLGLDYTGISWKDKVADLRLKMAERNVMWFVVTALDEIAWLFNLRGSDVEHNPVFFSYAIIGLETIMLFIDGDRIDAPSVKEHLLLDLGLEAEYRIQVHPYKSILSELKALCADLSPREKVWVSDKASYAVSETIPKDHRCCMPYTPICIAKAVKNSAESEGMRRAHIKDAVALCELFNWLEKEVPKGGVTEISAADKAEEFRRQQADFVDLSFPTISSTGPNGAIIHYAPVPETNRTLSLDEVYLIDSGAQYKDGTTDVTRTMHFGTPTAYEKECFTYVLKGHIAVSAAVFPTGTKGHLLDSFARSALWDSGLDYLHGTGHGVGSFLNVHEGPCGISYKTFSDEPLEAGMIVTDEPGYYEDGAFGIAIENVVLVVPVKTKYNFNNRGSLTFEPLTLVPIQTKMIDVDSLTDKECDWLNNYHLTCRDVIGKELQKQGRQEALEWLIRETQPISKQH
notes: human cytosolic aminopeptidase P (hcAMPP), encoded by XPNPEP1, residues M1 to H623, with R535A made by QuikChange mutagenesis of pET28a-hcAMPP; The His-tag is thrombin cleavable; no cleavage is described; also called R535A hcAMPP; Arg535Ala hcAMPP; source: E. coli Rosetta (DE3), purified (Ni2+ chelating column)
With B2, the “dimer:monomer ratio (printed as monomer:dimer 1:1.5)” value in data set [2] was found to be 1.5. Besides, in data set [1], the “stoichiometry N” value is 2. Besides, the “dimer:monomer ratio (printed as monomer:dimer 1:0.67)” value in data set [3] was 0.67.

B3: human cytosolic aminopeptidase P, Y527F mutant (enzyme, UniProt Q9NQW7 1-623, looked up)
chain: MPPKVTSELLRQLRQAMRNSEYVTEPIQAYIIPSGDAHQSEYIAPCDCRRAFVSGFDGSAGTAIITEEHAAMWTDGRYFLQAAKQMDSNWTLMKMGLKDTPTQEDWLVSVLPEGSRVGVDPLIIPTDYWKKMAKVLRSAGHHLIPVKENLVDKIWTDRPERPCKPLLTLGLDYTGISWKDKVADLRLKMAERNVMWFVVTALDEIAWLFNLRGSDVEHNPVFFSYAIIGLETIMLFIDGDRIDAPSVKEHLLLDLGLEAEYRIQVHPYKSILSELKALCADLSPREKVWVSDKASYAVSETIPKDHRCCMPYTPICIAKAVKNSAESEGMRRAHIKDAVALCELFNWLEKEVPKGGVTEISAADKAEEFRRQQADFVDLSFPTISSTGPNGAIIHYAPVPETNRTLSLDEVYLIDSGAQYKDGTTDVTRTMHFGTPTAYEKECFTYVLKGHIAVSAAVFPTGTKGHLLDSFARSALWDSGLDYLHGTGHGVGSFLNVHEGPCGISYKTFSDEPLEAGMIVTDEPGYFEDGAFGIRIENVVLVVPVKTKYNFNNRGSLTFEPLTLVPIQTKMIDVDSLTDKECDWLNNYHLTCRDVIGKELQKQGRQEALEWLIRETQPISKQH
notes: human cytosolic aminopeptidase P (hcAMPP), encoded by XPNPEP1, residues M1 to H623, with Y527F made by QuikChange mutagenesis of pET28a-hcAMPP; The His-tag is thrombin cleavable; no cleavage is described; also called Y527F hcAMPP; Tyr527Phe hcAMPP; source: E. coli Rosetta (DE3), purified (Ni2+ chelating column)
Take B3: the results for the “dimer:monomer ratio” value in data set [1] and in data set [3] were 3.4 and 1.8, respectively. Moreover, the “stoichiometry N” value in data set [1] is 2.

Values taken from PMC5774706, “Investigation of the proton relay system operative in human cystosolic aminopeptidase P” (PLoS ONE, 2018).
